Paper PMC5397151 (Nucleic Acids Research, 2017)

Tests used:
[1] = system: pyRbkR; experiment: HPLC end-point riboflavin kinase assay, FMN detected at […] nm; format: biochemical, Pyrobaculum yellowstonensis; conditions: read-out: apparent Km; saturating CTP (0.2 mM), 5 mM MgCl2, 0.1 M NaCl, HEPES pH 8, 60 °C
[2] = molecular target: T1, taRbkR (Thermoplasma acidophilum, UniProt Q9HJA6 1-220); experiment: fluorescence polarization
T1 sequence: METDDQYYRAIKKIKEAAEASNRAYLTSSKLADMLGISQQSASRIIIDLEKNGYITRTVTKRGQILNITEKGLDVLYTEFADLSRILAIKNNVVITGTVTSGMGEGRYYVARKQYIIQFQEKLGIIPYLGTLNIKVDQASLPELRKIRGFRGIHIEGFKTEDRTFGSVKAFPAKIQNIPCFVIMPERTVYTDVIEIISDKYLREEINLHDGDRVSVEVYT

[3] = molecular target: the molecule itself; experiment: crystal structure
[4] = molecular target: T1, taRbkR; experiment: X-ray crystallography 1.85 A

`Cc1cc2nc3c(=O)[nH]c(=O)nc-3n(C[C@H](O)[C@H](O)[C@H](O)CO)c2cc1C` [riboflavin] gave a Km [1] of 73 ± 26 µM.

B1: ta ribT 35 bp (dsDNA)
DNA 1: TATGCTACTAATTCACGAGTAATTACTCAAATATT
DNA 2: AATATTTGAGTAATTACTCGTGAATTAGTAGCATA
For B1, the “apparent K (half saturation)” value [2] was roughly 16 nM.

B2: RbkR protein from Thermoplasma acidophilum (bifunctional riboflavin kinase/regulator) (natural protein)
chain: ETDDQYYRAIKKIKEAAEASNRAYLTSSKLADMLGISQQSASRIIIDLEKNGYITRTVTKRGQILNITEKGLDVLYTEFADLSRILAIKNNVVITGTVTSGMGEGRYYVARKQYIIQFQEKLGIIPYLGTLNIKVDQASLPELRKIRGFRGIHIEGFKTEDRTFGSVKAFPAKIQNIPCFVIMPERTVYTDVIEIISDKYLREEINLHDGDRVSVEVYT
In the case of B2, the “stoichiometry N” value [3] is reported as 2.

B3: ta ribT operator crystal duplex (dsDNA)
DNA 1: ATTACTAATTCACGAGTAA
DNA 2: TTTACTCGTGAATTAGTAA
B3: binds [4].
